Source: patent US20070022485, “Method of preparing transgenic organism with use of methylation and system therefor” (Japan Science Techonology Agency, published 2007)

Assays:
[1] = test system: Tc3 transposase (pRP2302) (Caenorhabditis elegans); assay: cell_activity; details: 5mC at CpG; gene trap events in mouse ES cells
[2] = biological target: T1, SB transposase N123 (N-terminal 123 aa DNA-binding domain) (Sleeping Beauty (synthetic, …)); assay: EMSA; poly(dI-dC) 1 ug, 25 C, 30 min; details: tags: C-terminal His6 (pET21d, E. coli); label: 32P 5'
T1 chain: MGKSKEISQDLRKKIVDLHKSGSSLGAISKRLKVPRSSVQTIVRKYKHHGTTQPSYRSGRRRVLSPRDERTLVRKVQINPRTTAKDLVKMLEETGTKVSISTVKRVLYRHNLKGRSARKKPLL
Method: (§1) This oligonucleotide was first labeled with [γ-³²P]ATP using T4 polynucleotide kinase, and then annealed. DNA fragment of IR/DR-L was digested with HindIII and KpnI for the preparation, and thereafter, the fragment was methylated using SssI methylase or kept unmethylated and then the fragment was treated with an alkaline phosphatase. The digested fragment was extracted using phenol-chloroform, and precipitated with ethanol, and then finally, T4 polynucleotide was used to label with [γ-³²P]ATP. In the presence of poly(dI-dC) (1.0 μg), 0.2 pmol of oligonucleotide probe or 100 pg of IR/DR-L fragment, and 1.0 μl of N123, a nucleoprotein complex was formed in a buffer described previously in Ivics, Z., P. B. Hackett, R. H. Plasterk, and Z. Izsvak. 1997; Cell 91:501-510). After a thirty minute incubation at 25 degrees Celsius, samples were loaded on a 5%-native polyacrylamide gel, and electrophoresed at 150V constant voltage, and in 0.5× Tris-borate-EDTA, 1.5 hours for oligonucleotide probe and 2.5 hours for IR/DR-L fragment. After the gel was dried, the nucleoprotein was visualized by autoradiography.
(§2) In order to clarify the mechanism of transposition which has been enhanced by methylation of CpG, the present inventors have compared the affinity of recombinant SB transposase peptide against the methylated IR/DR and unmethylated IR/DR by EMSA. […]

[3] = biological target: T1, SB transposase N123 (N-terminal 123 aa …); assay: EMSA; shift and competition comparable to unmethylated site; poly(dI-dC) 1 ug, 25 C; details: tags: C-terminal His6 (pET21d, E. coli); label: 32P 5'
Method: as §1, §2

Tc3 transposon vector pTc3/SAβ-geo, CpG methylated
binding signal (fold vs unmethylated) [1]: 2

B1: IR/DR-L outer binding site, unmethylated 34 bp (dsDNA)
DNA 1: TACAGTTGAAGTCGGAAGTTTACATACACTTAAG
DNA 2: CTTAAGTGTATGTAAACTTCCGACTTCAACTGTA
binding result [2]: binds

B2: IR/DR-L outer binding site, methylated 34 bp (dsDNA)
DNA 1: TACAGTTGAAGTCGGAAGTTTACATACACTTAAG
DNA 2: CTTAAGTGTATGTAAACTTCCGACTTCAACTGTA
modifications: 5mC at the CpG on both strands (n in SEQ:64 and SEQ:65)
binding result [3]: binds
